Assay results published in patent US20220002363A1, “COMPOSITIONS AND METHODS FOR TREATING PULMONARY DISEASE” (United States Government As Represented By The Department …, priority 2020, published 2022).
Where a SMILES comes first, the peptide text is derived from it. The star is where a group is joined. Cbz = O=C(OCc1ccccc1)*; CH2F = FC*

Tests used:
HPAEpiC = conditions: cited from earlier work
LA4 monolayer = conditions: LA4 cells; cited from earlier work
biotinylated WT-sFasL = molecular target: T1, biotinylated WT-sFasL (human, UniProt P48023 103-281, biotinylated with EZ-Link Sulfo-NHS-LC-Biotin (sites not given)); test: mixture captured on streptavidin-coated wells, detected with HRP anti-FLAG antibody
T1 construct: range 103-281; Same protein as WT-sFasL, chemically biotinylated; also called biotinylated wild type sFasL
T1 sequence (looked up): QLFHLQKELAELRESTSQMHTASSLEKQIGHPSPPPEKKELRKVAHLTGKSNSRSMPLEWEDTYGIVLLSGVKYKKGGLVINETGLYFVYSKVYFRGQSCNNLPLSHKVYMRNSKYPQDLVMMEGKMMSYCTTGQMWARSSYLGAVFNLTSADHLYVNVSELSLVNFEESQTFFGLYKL
Method: (§1) Serial 3-fold dilutions of FLAG tagged mut-sFasL were mixed with biotinylated WT sFasL (60 ng). The mixtures were incubated at room temperature for 15 minutes and applied to streptavidin-coated wells. FLAG tags were detected with HRP anti-FLAG mAb. There was a dose-dependent increase in FLAG signal in wells incubated with the biotinylated WT sFasL+ and the mut-sFasL-FLAG mixture, showing the formation of complexes of WT and mut-sFasL. […] Data shown as ratio of the absorbance at 450 nm of each experimental condition to that of media only. Data were generated from three separate experiments, each done in duplicate, and were analyzed by 2-way ANOVA with Dunnet's post hoc analysis; comparisons were made to 0 ng/mL for each condition. Each dot represents individual data, lines represent means±SD. *=P<0.05; **=P<0.01, ***P<0.001.
The mut-sFasL forms complexes with WT sFasL. In order to be active, sFasL must form trimers or higher order multimers. Therefore, it was tested whether the mut-sFasL forms complexes with WT-sFasL. The mixture was incubated in streptavidin-coated well to capture the biotinylated WT-sFasL. After washing unbound material, FLAG was detected using an anti-FLAG antibody, which would detect FLAG-tagged mut-sFasL complexed with biotinylated WT-sFasL. […]

biotinylated WT sFasL [1] = molecular target: T2, biotinylated WT sFasL (Homo sapiens, UniProt P48023); test: Complex formation of FLAG tagged mut-sFasL with biotinylated WT sFasL on streptavidin-coated wells; type: binding; conditions: fixed biotinylated WT sFasL (60 ng), increasing FLAG-tagged mut-sFasL
T2 construct: biotin (chemical label, EZ-Link Sulfo-NHS-LC-Biotin); made in house; host or cells: FreeStyle 293-F cells
T2 sequence (P48023 103-281): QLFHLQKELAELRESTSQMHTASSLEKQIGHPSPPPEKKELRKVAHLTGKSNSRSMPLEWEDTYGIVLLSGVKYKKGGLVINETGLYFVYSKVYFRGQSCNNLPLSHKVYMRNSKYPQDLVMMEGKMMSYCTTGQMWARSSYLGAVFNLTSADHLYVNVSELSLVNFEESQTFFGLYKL
Method: as §1, with “mAb.” for “mAb. There was a dose-dependent increase in FLAG signal in wells incubated with the biotinylated WT sFasL+ and the mut-sFasL-FLAG mixture, showing the formation of complexes of WT and mut-sFasL.”
(§2) Antibodies and Reagents. To prepare immunoaffinity columns, mouse monoclonal anti-human FasL antibodies, clone 100419 (R&D System, Cat #MAB126, RRID:AB 2246667, Minneapolis, Minn.), were used. For the Fas-FasL binding assay, recombinant human soluble Fas receptors (PeproTech, Rocky Hill, N.J.) and biotinylated goat anti-human FasL antibodies (PeproTech Cat #500-P184bt-50 ug, RRID:AB 148184) were used. Mouse anti-human Fas (CD95) monoclonal IgM antibody, clone CH-11 and its isotype control antibody, clone 3D12, were obtained from MBL, Nagoya, Japan (MBL International Cat #SY-001, RRID:AB 591016 and Cat #M077-3, RRID:AB 593057, respectively). FLAG tagged mut-sFasL was detected using HRP anti-FLAG monoclonal antibody (Sigma-Aldrich, Cat #A85920). Unless otherwise indicated, the other chemicals were purchased from Sigma-Aldrich (St. Louis, Mo.).
(§3) Biotinylation of sFasL. Immunoaffinity purified WT-sFasL was biotinylated with No-Weight Format EZ-Link Sulfo-NHS-LC-Biotin (Pierce, Rockford, Ill., Cat #21327) following the manufacturer's instructions. To capture biotinylated WT-sFasL in the mixtures of biotinylated WT-sFasL and mut-sFasL-FLAG, Streptavidin-variant (Strep-Tactin XT) coated 96-well plates (iba, Gottingen, Germany, Cat #2-4101-001) were used.
(§4) The mut-sFasL forms complexes with WT sFasL. […] After washing unbound material, FLAG was detected using an anti-FLAG antibody, which would detect FLAG-tagged mut-sFasL complexed with biotinylated WT-sFasL.

biotinylated WT sFasL [2] = test: as above; type: binding, human; conditions: FLAG-tagged mut-sFasL by itself
Method: as §1, with “mAb.” for “mAb. There was a dose-dependent increase in FLAG signal in wells incubated with the biotinylated WT sFasL+ and the mut-sFasL-FLAG mixture, showing the formation of complexes of WT and mut-sFasL.”
as §2, §3, §4

recombinant human Fas = molecular target: T3, recombinant human Fas (Homo sapiens, UniProt P25445); test: Competition assay: binding of biotinylated WT sFasL to plate-coated recombinant human Fas; conditions: biotinylated WT-sFasL 70 ng/mL, Fas coated at 250 ng/mL, serial 3-fold dilutions
T3 construct: recombinant human soluble Fas receptors (PeproTech, Rocky Hill, N.J.); purchased PeproTech
T3 sequence (P25445 26-173 limits assumed): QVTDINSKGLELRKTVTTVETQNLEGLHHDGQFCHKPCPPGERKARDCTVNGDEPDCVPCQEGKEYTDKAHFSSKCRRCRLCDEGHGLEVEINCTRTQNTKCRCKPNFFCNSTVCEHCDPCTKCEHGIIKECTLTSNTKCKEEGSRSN
Method: The mixtures were incubated for 2 hours in 96-well plates pre-coated with recombinant hsFas (250 ng/ml). After washing unbound material, biotin was detected using HRP conjugated Streptavidin. […] The sFasL bound to Fas was detected using polyclonal anti-human FasL antibodies. […] Different molar ratios of the Fas-activating antibody CH-11 and mut-sFasL were added, and caspase 3/7 activity measured after 5 hours. […] Data represent the results from three separate experiments, each done in duplicate, and were analyzed by 2-way ANOVA with Sidak's post hoc analysis. […] Each dot represents individual data; lines represent means±SD. *=P<0.05; **=P<0.01, ***P<0.001.
Antibodies and Reagents. […] FLAG tagged mut-sFasL was detected using HRP anti-FLAG monoclonal antibody (Sigma-Aldrich, Cat #A85920). […]
WT-sFasL inhibition occurs prior to receptor binding. […] Recombinant human Fas at 250 ng/mL were coated and the binding of a fixed concentration of biotinylated WT-sFasL (70 ng/mL) were measured in the presence of serial 3-fold dilutions of either WT-sFasL or mut-sFasL. […] Serial dilutions of either WT-sFasL or mut-sFasL were incubated in wells coated with recombinant human Fas, 5 μg/mL, and after washing, detected sFasL bound to Fas using polyclonal anti-FasL antibodies. […]

## COC(=O)CC[C@H](NC(=O)[C@H](CC(=O)OC)NC(=O)OCc1ccccc1)C(=O)N[C@H](C(=O)N[C@@H](CC(=O)OC)C(=O)CF)C(C)C [zDEVD.fmk, reference compound]
HPAEpiC; HPAEpiC, pretreatment
  reversal of sFasL effect on monolayer permeability and ZO-1/occludin expression: reversed the effect of sFasL on HPAEpiC monolayer permeability and ZO-1/occludin expression

## CC(NC(=O)C(NC(=O)OCc1ccccc1)C(C)C)C(=O)NC(CC(=O)O)C(=O)CF (stereo not drawn) [zVAD] (Cbz-Val-Ala-Asp-CH2F; configuration not given here)
LA4 monolayer
  reversal of cell death and monolayer permeability induced by Jo2: reversed cell death and monolayer permeability induced by Jo2

B1: FLAG tagged mut-sFasL (ligand, human, UniProt P48023 103-281, looked up)
chain: QLFALQAALAALAASTSQMATASSLAKQIGHPSPPPEKKELRKVAHLTGKSNSRSMPLEWEDTYGIVLLSGVKYKKGGLVINETGLYFVYSKVYFRGQSCNNLPLSHKVYMRNSKYPQDLVMMEGKMMSYCTTGQMWARSSYLGAVFNLTSADHLYVNVSELSLVNFEESQTFFGLYKL
notes: range 103-281; C-terminal FLAG tag; also called mut-sFasL-FLAG; 8-mut sFasL-FLAG; not shown: FLAG tag fused in frame after amino acid 281
Biotinylated WT-sFasL
  binding result: binds

B2: mut-sFasL-FLAG: 8-mut sFasL with FLAG tag at the 3′-end of the 281th amino acid coding sequence (protein)
chain: QLFALQAALAALAASTSQMATASSLAKQIGHPSPPPEKKELRKVAHLTGKSNSRSMPLEWEDTYGIVLLSGVKYKKGGLVINETGLYFVYSKVYFRGQSCNNLPLSHKVYMRNSKYPQDLVMMEGKMMSYCTTGQMWARSSYLGAVFNLTSADHLYVNVSELSLVNFEESQTFFGLYKL
modifications: left off: small tags and cut ends
Biotinylated WT sFasL [1]
  FLAG signal (complexes with WT sFasL): dose-dependent increase in FLAG signal
Biotinylated WT sFasL [2]
  binding to streptavidin-coated plate without biotinylated WT sFasL: did not bind to the streptavidin-coated plates
Biotinylated WT sFasL [2]; listed as FLAG-tagged mut-sFasL
  binding to streptavidin-coated plate without biotinylated WT sFasL: did not bind to the plate, even at high concentrations

B3: WT-sFasL: wild type human soluble Fas ligand, amino acids 103 to 281, expressed in FreeStyle 293-F cells (protein, UniProt P48023 103-281, looked up, fragment)
chain: QLFHLQKELAELRESTSQMHTASSLEKQIGHPSPPPEKKELRKVAHLTGKSNSRSMPLEWEDTYGIVLLSGVKYKKGGLVINETGLYFVYSKVYFRGQSCNNLPLSHKVYMRNSKYPQDLVMMEGKMMSYCTTGQMWARSSYLGAVFNLTSADHLYVNVSELSLVNFEESQTFFGLYKL
Recombinant human Fas
  effect of increasing competitor concentration on binding of biotinylated WT-sFasL to Fas: binding of biotinylated WT-sFasL to Fas decreased
HPAEpiC; HPAEpiC exposed to long form of sFasL
  caspase 3 induction: induced caspase 3
